According to a protein production outcome set (Wang et al. 2014):

Test: label from the status in PepcDB records

MGINEIIMYIMMFFMLIAAVDRILSQFGGSARFLGKFGKSIEGSGGQFEEGFMAMGALGLAMVGMTALAPVLAHVLGPVIIPVYEMLGANPSMFAGTLLACDMGGFFLAKELAGGDVAAWLYSGLILGSMMGPTIVFSIPVALGIIEPSDRRYLALGVLAGIVTIPIGCIAGGVIAMYSGVQINGQPVEFTFALILMNMIPVLIVAVLVALGLKFIPEKMINGFQIFAKFLVALITIGLAAAVVKFLLGWELIPGLDPIFMAPGDKPGEVMRAIEVIGSISCVLLGAYPMVLLLTRWFEKPLMNVGKLLNVNNIAAAGMVATLANNIPMFGMMKQMDTRGKVINCAFAVSAAFALGDHLGFAAANMNAMIFPMIVGKLIGGVTAIGVAMMLVPKDDAAQVKTEAEAQS
protein production: failed

MGISPPLTAVSAFGTDVSGNAFIGAGVATLAVLMVLSAFFSSSEIAMFSIPRHRIDALVEEGRSGADAVAALKSDPHRLLITILVGNNLVNIAMSSIATGLFATSMSQGKAVLAATFGVTALVLLFGESAPKSYAVENSESWALSIAKPLQWSERFLYPLVVLFDYLTRAVNQFTGGRAAIESSYVTRSEIQDMIKTGEREGVIEEDEREMLQRIFRFNNTIAKEVMTPRLDVVAVSKTDTIEAAIQTCTQAGHERVPVYDGELDNVIGVVSLEDLVRESLYGETEDAELDDLIEPTLHVPESKNVDDLLQEMQDERVQLVVVIDEFGTTEGLLTAEDITEEIVGEILDGGEDLPIDSVDEDTVRVRGEVNIEEVNEALNIDLPEGEEFETIAGFIFNRAGRLVEEGEAFRFEDIELTVEHVENTRIMKARVQRLDSAAEADANAEVLTADSTGNGA
protein production: failed

MGKDGLSDDQVSSMKEAFMLFDTDGDGKIAPSELGILMRSLGGNPTQAQLKSIIASENLSSPFDFNRFLDLMAKHLKTEPFDRQLRDAFKVLDKEGTGFVAVADLRHILTSIGEKLEPNEFDEWIKEVDVGSDGKIRYEDFIARMVAK
protein production: failed

MGKEFFLQHDIVIMYSILFVFIIILKMQFFTWFGMLACMFGIVFYTLNEYMTHRFLFHIKPPKNTFLLKMLRRLHYDHHVYPDDLKLLFLPVWFSIPSFTIYLLIAYGITKSVTITLSFGIGMIIMLLVYEWKHYIAHRPIRPVTKFGRWLKKQHILHHYKNEKFWFGVSNPVFDFIFGTLKDGKDVELSETARNLEKEKKTKVVR
protein production: failed

MGKGCAASLWPTAIGPRMPRPLSLLPRPAGLMLRLVGSLVLTLWLVWLLADRLALLAPGEVIAALSGLPVWRLAAALLATAVSFWALGRYDGVAHRHFRTGLAARQARLCGMAAIGFSQFVGCGVLSGSFARWRMIGDLTPALALRLTTFVAITFLLALAFWASALCLIAPPLPGLRQTGVAGLALLLPITLVLFLLPRLRLGRFTLRLPSLRALGAILGWAALDLAAAAAVLWVLLPALSWTDLPLLMSAYVLALAAGLLSGAPGGLGAFELTLLALLPAIPGAELMAAVLAYRLIYVALPALAAVPLLLSPPDLRLGRQHRLPRRIHHHPPARPRAETAVVTQSRGYVLSGGFADMAVVETDQSLIMLFDPVCGGRHPDLYLLARRAAQRNLFALVYKCSARVAVSARRAGWRVRHVSDEATLVPADFTIAGSHRRQLRRKLRQAERAGLTVRRASTLPLTQMAAVDRLWQEANGRAWGLTMGRFAPDYLARQAVFLAWRGARLEGFVSFHRSRDEWCLDLMRTHPDAPEGTMHALVATALAATAAARVPRLSLAAVPAGRLGHRFDGLRQFKDSFAPRWQPLYMAAPGWTAIALAAADLARHVQAPPPLAAPDAQPAHDLDEEIEFASLTGT
protein production: failed

MGKGDPKKPRGKMSSYAFFVQTCREEHKKKHPDASVNFSEFSKKCSERWKTMSAKEKGKFEDMAKADKARYEREMKTYIPPKGETKKKFKDPNAPKRPPSAFFLFCSEYRPKIKGEHPGLSIGDVAKKLGEMWNNTAADDKQPYEKKAAKLKEKYEKDIAAYRAKGKPDAAKKGVVKAEKSKKKKEEEEDEEDEEDEEEEEDEEDEDEEEDDDDE
protein production: failed

MGKKKNKKTEVQQPDPMRKNWIMENMDSGVIYLLESWLKAKSQETGKEISDIFANAVEFNIVLKDWGKEKLEETNTEYQNQQRKLRKTYIEYYDREMK
protein production: not failed

MGKKLDALLGRSFKTNKFKSLITLALTRLSILKNQRQARLSQAISDVTELLKLGQHEHAYHRVDQVVKDQNTLDVLFFIHGYFTLCLDRIHLFEHNRDCPEELLEAVSGLLFAASRIGEFPELQEIRNVLISRFGKDLAARSIELRSNCGVDPKIIQKLSTRPPPKEVRMKALKEIAAENNIVLKLDQASTSTEGTTNMQGTSDVSKTKLTSKDGRGEGYGLSDSVKRGKKKYKDVADAAQAAFESAAHAAEAAQAAVELSQFSPRGHDSPGNIGGENSFHGSENKESEQEQEGNDDSSEGEGDVMSESKRSMSDSEDIIDVPVMSFREDPVKLLEKDTIIYDSEEETQPSVETITISKSKDEQNRMVGSNRADTRHVDHMVRSIEDPIMRKAGLKGPVSVRTRQVRGY
protein production: failed

MGKKTENLKIDAKKSFLKRIAKNVKVSEGERAVEDILRCIYRNQPISTKKIGQYVKLPLPIVSKVRSILERESLLKRDDKGAVLSKKGIDFVENELGLKLKSDMKCPVCSGRNIVFDEKFEKILKKHKTYAKLRPQVNTMIDQSFATPETATARAAIMADRGDLEGKRVLFVGDDDLASIPTAMTGLCSEVVVLDIDDRLLKLISEVSKKENLNIRTVKWDFKNELPSEFVNKFDTIFTDPPYTLNGAVLFMSRGIEALGDNGILYLAFSHKPVEEYIELQKSINNMNFLIYELIPGFNFYEGTEIIGNTTFLARLVGKNLKKIEVNSEKIYTGELKPTLRYYQCMNCKKIHEVGNKVKRIEDLTCECGGKK
protein production: failed

MGKMEPFRATGDGLFIMNEGNFQYGNATLSYYDPETKKVENEIFYRANAMKLGDVAQSMIVRDTIGWVVVNNSHVIFAISTNTFKEVGRITGLTSPRYIHFISDEKAYITQIWDYRIFIVNPKTYQITGYIECPDMTMETGSTEQMVQYGKYVYVNCWSYQNRILKIDTTTDKVVDQLTVGIQPTSLVMDKNFKMWTITDGGYKGSPYGYEEPSLYRIDAETFKIEKQFKFQLGDAPSEVQLNGAGDELYWINKDIWRMSVDEERVPVRPFLKYRDTKYYGLTVSPKNGDVYVADAIDYQQQGMIYRYTEDGELVDEFYVGIIPGAFCWKLEHHHHHH
protein production: not failed

MGKSDFIKVNVSNSHNDAVAFEVKLAKDLTVAQLKTKLEILTGGCAGTMKVQVFKGDTCVSTMDNNDAQLGYYANSDGLRLHVVDS
protein production: not failed

MGLEQAVVDFFNHMGLLNLTVGNVVMIIVGLTLVYLAIRYEMEPLLLLPIGISAVLVNLPLSHMANWPLAPQLPPEIQENIFATISYLSQQYGPPGLFDLIYYLLIKTEVVPLLIFFGLGAMTDFGPMIADPKTALLGAAAQIGVFVAMLVALALGFNLKEAASIGIIGGADGPTTIYLTTKLAPHILSATAVAAYSYMSLVPLIQPPVIKALTTPEERRIRMEQLRPVSKREKILFPIASMIVIGLLVPSAAPLIGMLMIGNLFRESGVVQRLSKAAQEELMNIVTIFLGLGIGSTMRAESFLTPKTLMILALGVVAFASATAGGVLFGKIMMKISGGKINPMIGAAGVSAVPMSARVVQRLASEEDPGNFILMHAMGPNVAGVIGTAVVAGVFLSALG
protein production: failed

MGLFFAQNMMYNHTITVYDRNYELVKVIPDEVDLSKYGHSRFKGKYRGAPVEASFSHNGKYAWISNYQMYGPGFNNPGSDKCHPSQKTDKSFLYRINTETLKIDRVIPVGSVPKFVATSTDENLILVSNWCSWDLSVVDINQNQEIKRIKLGPYPRGIVVDPASETAYVAVMGSYNIAKVNLRDFSVQWLRNIGSSPRHLNIDPAGKYLYASLNGEGKIAKISLPQGNLVKKIATGNAPRSMVLSANGQTLYVVNYGEDTVSKVRTSDMKVLQKVKVEPDPIGITYDPQTREVWVACYSGNIMIFQDLEHHHHHH
protein production: not failed

MGLFQIKPDIHYGANSLDILRTLEMEKVFLVTDENMVKLKVINKVTNILKSRGIEAKVYSDVKPDPTDEEIIKGMLELSAHDPDCIIALGGGSPIDACKSMIYFTNQIKRAMGQNKKPKFIAIPTTSGTGSEVTSYAVVTTKDKKIPLSDSEMLPDIAILNPEFIKTLSPSIIADTGMDVLTHAIEAYVSKSRNLFTNTFAIGAIKTVFADLVSNFENPQLEKERINLQIASCMAGVAFSNAGLGINHSIAHSLGARFHKPHGRLNAVIMSEVIQFNARNKNAAKYYREIVEALGFSPKEDVEGVEILAKAIKMRAAKMGIPNSLSELGIPKEQYFDEMEGIIDQIENDMCTGENPRRFSRIEMKQLLTDLY
protein production: not failed

MGLKIIHNEGIEMKLQLKADLGLLLVTFFWGASILLTKVGLEGIEEYNLIALRFIIAFLLSGLIFYKHLFKIDFKTVKYAFILASVLFIVYIFATFGTKYTSVSNAGFLLCLTVIFIPILSAIFLKHIPEQKVIVGIILTIIGIGLLTLTSEFKIGNGDIFCILSALFYAIHVIITGSVTKHVNSIALGVVQLGFVGLFSLIFSFIIETPKLPSTINSWLIILALSIFCTAVAFIVQVIAQQYTTPTHTGLIFSLEPVFSAGFAFVFTGETLTRKGYLGATLILVSVLIAEVDFKSLLRVNYKKNVE
protein production: failed

MGLLFFHNDVTDRFNPFIHQQDVYVQIDRDGRHLSPGGTEYTLDGYNASGKKEEVTFFAGKELRKNAYLKVKAKGKYVETWEEVKFEDMPDSVQSKLKLEHHHHHH
protein production: not failed

MGLPLVLDFDLYFCLMKCFIHQQLHLKVGYRLTERFVKTFGEERDGVWFYPRPEDIAARSYDDLRALQLSRRKAEYIVDVSRLIADGTLRLDDLEQMEDGEVMERLTAIRGIGPWTVQNFLLFGLEHHHHHH
protein production: failed

MGLQGQLSDVSSDSIPLMLLSLLAVFINHLRSFLLRLTSKSNPNLPVDDVSIASGLANIIVLADQLSLNRLFSYRCGDGGGGGSDCVVCLSKLKEGEEVRKLECRHVFHKKCLEGWLHQFNFTCPLCRSALVSDDCVSKTQRSVGRDLISCFSLH
protein production: failed

MGLSKVEEKYRKSHEIFLKRLAALPKPEFDNTLPVHEKLDEIKKTVAEHQVTIICGETGSGKTTQLPKICLELGRGVAGLIGHTQPRRLAARSVAERIAEELKSEIGSAVGYKVRFTDHTSRDACVKLMTDGILLAETQTDRYLAAYDTIIIDEAHERSLNIDFLLGYLKQLLPRRPDLKVIITSATIDAERFSRHFNGAPVLEVSGRTYPVEILYRPLTGKDEDDAEVELTDAIVDAADELARHGEGDILVFLPGEREIRETAEALRKSTLRRNDEILPLFARLSHAEQHKIFHPSGAKRRIVLATNVAETSLTVPGIKYVIDTGLARVKRYSARAKVEQLHVEKISQAAARQRSGRCGRVSAGVCIRLFSEEDFNSRPEFTDPEIVRSNLAAVILRMASLNLGDVAAFPFLEMPDSRYINDGFQVLLELGAVEAVLEHHHHHH
protein production: failed
